From the supplement of paper PMC9112550, “Optimization of the antimicrobial peptide Bac7 by deep mutational scanning” (BMC Biology, 2022) come the findings set out here.
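Also: peptides expressed intracellularly from a pBAD plasmid library in pooled LB shake-flask culture, induced with 0.3% L-arabinose, DNA abundance read by NGS, three biological replicates, DESeq2 with apeglm shrinkage.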

This series concerns Escherichia coli TOP10. The series is described as follows: shrunken log2 fold change of peptide-encoding DNA abundance (4.5 h post-induction vs induction); higher = less antimicrobial activity (less host growth inhibition). The conditions noted are these: time post-induction: 4.5 h; library: site-saturation at positions 5, 18, 19, 20.
On to RRIRFRPPRLPRPRPRPLFDPRP, for which the “shrunken log2 fold change” value is -0.578.

For RRIRRRPPRLPRPRPRPQVGPRP, the “shrunken log2 fold change” value turned out to be 0.149.

As for RRIRSRPPRLPRPRPRPVIGPRP, the “shrunken log2 fold change” value is 0.0912.

On to RRIRCRPPRLPRPRPRPMKKPRP, for which the “shrunken log2 fold change” value was 0.0602.

For RRIRERPPRLPRPRPRPRPFPRP, the “shrunken log2 fold change” value was -0.0965.

As for RRIRGRPPRLPRPRPRPIYRPRP, the “shrunken log2 fold change” value came out at 0.2.

Take RRIRLRPPRLPRPRPRPYWIPRP: the “shrunken log2 fold change” value was -0.00778.

For RRIRWRPPRLPRPRPRPGGNPRP, the “shrunken log2 fold change” value came to 0.0972.

As for RRIRSRPPRLPRPRPRPHNNPRP, the “shrunken log2 fold change” value was -0.751.

Turning to RRIRTRPPRLPRPRPRPMCQPRP, the “shrunken log2 fold change” value is -0.0075.

On to RRIRQRPPRLPRPRPRPDAKPRP, for which the “shrunken log2 fold change” value turned out to be 0.199.

For the sequence RRIRWRPPRLPRPRPRPEVEPRP, the “shrunken log2 fold change” value is -0.016.

Turning to RRIRDRPPRLPRPRPRPYYMPRP, the “shrunken log2 fold change” value was -0.399.

With RRIRHRPPRLPRPRPRPKGYPRP, the “shrunken log2 fold change” value was -0.0529.

In the case of RRIRARPPRLPRPRPRPIQFPRP, the “shrunken log2 fold change” value amounted to 0.166.

RRIRFRPPRLPRPRPRPILSPRP: the “shrunken log2 fold change” value is -0.101.

Turning to RRIRFRPPRLPRPRPRPHKAPRP, the “shrunken log2 fold change” value stood at 0.0324.

On to RRIRDRPPRLPRPRPRPEHNPRP, for which the “shrunken log2 fold change” value is 0.14.

As to RRIRMRPPRLPRPRPRPIEMPRP, the “shrunken log2 fold change” value is -0.0608.

In the case of RRIRLRPPRLPRPRPRPGGSPRP, the “shrunken log2 fold change” value came out at 0.259.

Turning to RRIRNRPPRLPRPRPRPCYWPRP, the “shrunken log2 fold change” value was -0.345.

Consider RRIRSRPPRLPRPRPRPFFHPRP, for which the “shrunken log2 fold change” value was -0.498.

Take RRIRKRPPRLPRPRPRPRTMPRP: the “shrunken log2 fold change” value is 0.179.

With RRIRIRPPRLPRPRPRPAQDPRP, the “shrunken log2 fold change” value is -0.0552.

With RRIRQRPPRLPRPRPRPILGPRP, the “shrunken log2 fold change” value came to 0.0906.

For the sequence RRIRSRPPRLPRPRPRPLFCPRP, the “shrunken log2 fold change” value was -0.146.

Turning to RRIRTRPPRLPRPRPRPMWSPRP, the “shrunken log2 fold change” value is -0.0629.

As to RRIRTRPPRLPRPRPRPRTPPRP, the “shrunken log2 fold change” value amounted to 0.138.

As to RRIRPRPPRLPRPRPRPEPEPRP, the “shrunken log2 fold change” value stood at 0.433.

Turning to RRIRARPPRLPRPRPRPQSGPRP, the “shrunken log2 fold change” value was -0.0719.

Regarding RRIRTRPPRLPRPRPRPMIYPRP, the “shrunken log2 fold change” value is -0.465.

RRIRCRPPRLPRPRPRPPEEPRP: the “shrunken log2 fold change” value was 0.301.

Turning to RRIRERPPRLPRPRPRPMFAPRP, the “shrunken log2 fold change” value was 0.0495.

As for RRIRLRPPRLPRPRPRPHGHPRP, the “shrunken log2 fold change” value is -0.126.

On to RRIRPRPPRLPRPRPRPLPTPRP, for which the “shrunken log2 fold change” value was determined as 0.42.

With RRIRLRPPRLPRPRPRPGCDPRP, the “shrunken log2 fold change” value stood at 0.261.

For RRIRRRPPRLPRPRPRPAYHPRP, the “shrunken log2 fold change” value was found to be 0.0468.

With RRIRSRPPRLPRPRPRPVDVPRP, the “shrunken log2 fold change” value was determined as 0.126.

On to RRIRDRPPRLPRPRPRPCWNPRP, for which the “shrunken log2 fold change” value is -0.389.

Take RRIRFRPPRLPRPRPRPRRPPRP: the “shrunken log2 fold change” value was determined as 0.668.

Consider RRIRTRPPRLPRPRPRPDYWPRP, for which the “shrunken log2 fold change” value was -0.149.

With RRIRARPPRLPRPRPRPRTHPRP, the “shrunken log2 fold change” value is 0.259.

For RRIRIRPPRLPRPRPRPQRSPRP, the “shrunken log2 fold change” value was -0.0897.

For RRIRMRPPRLPRPRPRPYTKPRP, the “shrunken log2 fold change” value is -0.0606.

Turning to RRIRSRPPRLPRPRPRPQFHPRP, the “shrunken log2 fold change” value is -0.206.

With RRIRCRPPRLPRPRPRPEHLPRP, the “shrunken log2 fold change” value is -0.0545.

Turning to RRIRSRPPRLPRPRPRPTGWPRP, the “shrunken log2 fold change” value came out at 1.01.

As for RRIRGRPPRLPRPRPRPPAYPRP, the “shrunken log2 fold change” value amounted to 0.532.

Consider RRIRIRPPRLPRPRPRPCTTPRP, for which the “shrunken log2 fold change” value is -0.543.

RRIRMRPPRLPRPRPRPAEQPRP: the “shrunken log2 fold change” value is 0.395.

In the case of RRIRTRPPRLPRPRPRPAIAPRP, the “shrunken log2 fold change” value turned out to be 0.101.

For the sequence RRIRFRPPRLPRPRPRPVHIPRP, the “shrunken log2 fold change” value was determined as 0.0681.

Take RRIRSRPPRLPRPRPRPRHKPRP: the “shrunken log2 fold change” value is -0.262.

Turning to RRIRSRPPRLPRPRPRPVDMPRP, the “shrunken log2 fold change” value came to 0.0294.

As to RRIRVRPPRLPRPRPRPTVLPRP, the “shrunken log2 fold change” value is -0.0891.

Consider RRIRMRPPRLPRPRPRPDNHPRP, for which the “shrunken log2 fold change” value was -0.21.

For RRIRGRPPRLPRPRPRPNYHPRP, the “shrunken log2 fold change” value was -0.179.

For the sequence RRIRLRPPRLPRPRPRPYRCPRP, the “shrunken log2 fold change” value was -0.268.

Turning to RRIRWRPPRLPRPRPRPRVAPRP, the “shrunken log2 fold change” value was 0.699.

Consider RRIRHRPPRLPRPRPRPCKNPRP, for which the “shrunken log2 fold change” value is -0.444.

On to RRIRHRPPRLPRPRPRPYQVPRP, for which the “shrunken log2 fold change” value was -0.0252.

On to RRIRSRPPRLPRPRPRPKDQPRP, for which the “shrunken log2 fold change” value worked out at 0.232.

Consider RRIRTRPPRLPRPRPRPRNSPRP, for which the “shrunken log2 fold change” value was -0.193.

Take RRIRGRPPRLPRPRPRPGLIPRP: the “shrunken log2 fold change” value is -0.0196.

Turning to RRIRIRPPRLPRPRPRPPCYPRP, the “shrunken log2 fold change” value was -0.154.

As for RRIRGRPPRLPRPRPRPGTPPRP, the “shrunken log2 fold change” value stood at 0.919.

Turning to RRIRARPPRLPRPRPRPDRPPRP, the “shrunken log2 fold change” value was found to be 0.448.

For the sequence RRIRFRPPRLPRPRPRPFETPRP, the “shrunken log2 fold change” value was -0.158.

Consider RRIRERPPRLPRPRPRPEDKPRP, for which the “shrunken log2 fold change” value is -0.034.

RRIRARPPRLPRPRPRPEFEPRP: the “shrunken log2 fold change” value amounted to 0.75.

With RRIRIRPPRLPRPRPRPCIMPRP, the “shrunken log2 fold change” value was -0.466.

Consider RRIRLRPPRLPRPRPRPQPSPRP, for which the “shrunken log2 fold change” value was 0.169.

On to RRIRVRPPRLPRPRPRPTLAPRP, for which the “shrunken log2 fold change” value is 0.797.

RRIRWRPPRLPRPRPRPSRNPRP: the “shrunken log2 fold change” value was -0.0585.

As to RRIRARPPRLPRPRPRPYVYPRP, the “shrunken log2 fold change” value was -0.182.

Regarding RRIRSRPPRLPRPRPRPTFQPRP, the “shrunken log2 fold change” value stood at 0.0282.

Consider RRIRERPPRLPRPRPRPVLEPRP, for which the “shrunken log2 fold change” value is -0.0875.

Take RRIRMRPPRLPRPRPRPWRIPRP: the “shrunken log2 fold change” value is -0.0845.

RRIRKRPPRLPRPRPRPTGGPRP: the “shrunken log2 fold change” value worked out at 0.13.

On to RRIRYRPPRLPRPRPRPMFHPRP, for which the “shrunken log2 fold change” value was -1.24.

As for RRIRMRPPRLPRPRPRPAGCPRP, the “shrunken log2 fold change” value turned out to be 0.842.

Turning to RRIRHRPPRLPRPRPRPHMGPRP, the “shrunken log2 fold change” value was -0.238.

Regarding RRIRGRPPRLPRPRPRPRQQPRP, the “shrunken log2 fold change” value stood at 0.614.

On to RRIRDRPPRLPRPRPRPKMCPRP, for which the “shrunken log2 fold change” value is -0.0407.

As for RRIRGRPPRLPRPRPRPQALPRP, the “shrunken log2 fold change” value was 0.135.

On to RRIRRRPPRLPRPRPRPCTDPRP, for which the “shrunken log2 fold change” value is -0.115.

With RRIRPRPPRLPRPRPRPLGSPRP, the “shrunken log2 fold change” value was -0.0459.

For RRIRARPPRLPRPRPRPDTNPRP, the “shrunken log2 fold change” value was -0.0188.

On to RRIRGRPPRLPRPRPRPPWHPRP, for which the “shrunken log2 fold change” value is 0.396.

In the case of RRIRHRPPRLPRPRPRPWEKPRP, the “shrunken log2 fold change” value is -0.359.

Regarding RRIRFRPPRLPRPRPRPLAGPRP, the “shrunken log2 fold change” value was -0.104.

Regarding RRIRFRPPRLPRPRPRPCCTPRP, the “shrunken log2 fold change” value is -0.337.

RRIRERPPRLPRPRPRPFHVPRP: the “shrunken log2 fold change” value is -0.854.

For the sequence RRIRCRPPRLPRPRPRPFQQPRP, the “shrunken log2 fold change” value was -0.00107.

On to RRIRCRPPRLPRPRPRPSYEPRP, for which the “shrunken log2 fold change” value was -0.374.

On to RRIRHRPPRLPRPRPRPWRMPRP, for which the “shrunken log2 fold change” value came to 0.0309.

For RRIRKRPPRLPRPRPRPIREPRP, the “shrunken log2 fold change” value is 0.057.

RRIRNRPPRLPRPRPRPQCLPRP: the “shrunken log2 fold change” value was found to be 0.197.

With RRIRYRPPRLPRPRPRPNLIPRP, the “shrunken log2 fold change” value was -0.438.

On to RRIRRRPPRLPRPRPRPLCMPRP, for which the “shrunken log2 fold change” value is -0.126.

In the case of RRIRLRPPRLPRPRPRPARRPRP, the “shrunken log2 fold change” value is 0.348.

Consider RRIRIRPPRLPRPRPRPVIDPRP, for which the “shrunken log2 fold change” value was -0.0443.

Consider RRIRNRPPRLPRPRPRPCTQPRP, for which the “shrunken log2 fold change” value is -0.147.

With RRIRPRPPRLPRPRPRPEMLPRP, the “shrunken log2 fold change” value is 0.16.

Take RRIRGRPPRLPRPRPRPCTVPRP: the “shrunken log2 fold change” value turned out to be 0.032.

For the sequence RRIRTRPPRLPRPRPRPQPAPRP, the “shrunken log2 fold change” value is 0.0787.

RRIRARPPRLPRPRPRPDVFPRP: the “shrunken log2 fold change” value was found to be 0.176.

With RRIRVRPPRLPRPRPRPNIDPRP, the “shrunken log2 fold change” value is -0.258.

Consider RRIRDRPPRLPRPRPRPSFYPRP, for which the “shrunken log2 fold change” value is -0.128.

As for RRIRKRPPRLPRPRPRPRQCPRP, the “shrunken log2 fold change” value is -0.0759.

With RRIRTRPPRLPRPRPRPGNPPRP, the “shrunken log2 fold change” value is -0.34.

With RRIRIRPPRLPRPRPRPCTLPRP, the “shrunken log2 fold change” value is -1.08.

Regarding RRIRHRPPRLPRPRPRPGIAPRP, the “shrunken log2 fold change” value is -0.0902.

For the sequence RRIRGRPPRLPRPRPRPYNIPRP, the “shrunken log2 fold change” value was -0.2.

For RRIRGRPPRLPRPRPRPFLNPRP, the “shrunken log2 fold change” value came to 0.18.

Take RRIRMRPPRLPRPRPRPCTPPRP: the “shrunken log2 fold change” value amounted to 0.154.

In the case of RRIRPRPPRLPRPRPRPHYLPRP, the “shrunken log2 fold change” value was -0.906.

Take RRIRWRPPRLPRPRPRPCDQPRP: the “shrunken log2 fold change” value is -0.0328.

With RRIRGRPPRLPRPRPRPCQSPRP, the “shrunken log2 fold change” value was determined as 0.108.

For the sequence RRIRNRPPRLPRPRPRPMMKPRP, the “shrunken log2 fold change” value came to 2.77.

Consider RRIRMRPPRLPRPRPRPGTSPRP, for which the “shrunken log2 fold change” value turned out to be 0.24.

As for RRIRGRPPRLPRPRPRPDQYPRP, the “shrunken log2 fold change” value was -0.212.

RRIRCRPPRLPRPRPRPGADPRP: the “shrunken log2 fold change” value stood at 0.484.

As for RRIRLRPPRLPRPRPRPCHQPRP, the “shrunken log2 fold change” value was -0.234.

For the sequence RRIRARPPRLPRPRPRPQVGPRP, the “shrunken log2 fold change” value is 0.391.
